“And” between values parts separate entries of the source, which are not always exact repeats. Equal values may be shown once.
Tests used:
Assay in all cases: peptide microarray
Peptide_061 = biological target: T1, Peptide_061
T1 sequence (peptide): PGGGKVQIINKKLDL

Peptide_059 = biological target: T2, Peptide_059
T2 sequence (peptide): STENLKHQPGGGKVQ

Peptide_060 = biological target: T3, Peptide_060
T3 sequence (peptide): LKHQPGGGKVQIINK

Peptide_051 = biological target: T4, Peptide_051
T4 sequence (peptide): RTPPKSPSSAKSRLQ

fluorescence intensity (Peptide_061): 157 and 114
fluorescence intensity (Peptide_059): 204 and 126
fluorescence intensity (Peptide_060): 793 and 655
fluorescence intensity (Peptide_051): 151 and 83.3
B1: mAb TRC35 (antibody, V domains shown)
VH: QVQLQQPGTELVKPGASVKLSCKASGYTFTSYWLQWVKQRPGQGLEWIGEIDPSDSYTNYNQKFKGKATLTVDTSSSTAYMQLSSLTSEDSAVYYCATLTGSWGQGTTLAVSS
VL: DVLLTQTPLSLPVSLGDQASISCRASQSIVDSNGNTFLEWYLQKSGQSPKVLIYKVSNRFSGVPDRFSGRGSGTDFTLKISRVEAEDLGVYYCFQGSHVPYTFGGGTKLEIK

Reference: patent US20240352102A1
